Reference: the supplement of paper PMC11136658

Test system: peptide library, one residue held at a place counted from the Y acceptor
Assay: relative phosphorylation of the sub-library (ratio to the mean residue at this position); higher = residue favoured
Procedure, shortened: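 Each value expresses phosphorylation relative to the mean randomized residue. Purified recombinant kinases acted for 90 min in 384-well plates on biotinylated Tyr-centred peptide library mixtures, with one residue fixed at one position from −5 to +5, in the presence of 50 μM ATP with γ-32P-ATP. Signals were read by phosphorimaging after capture on streptavidin membranes, then normalized per position to the sum of the 18 randomized residues (16 in the Ser/Thr-free library) and multiplied by that number.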

Sequence of EPHA1, construct: aa568-end, human (P21709 568-976, looked up): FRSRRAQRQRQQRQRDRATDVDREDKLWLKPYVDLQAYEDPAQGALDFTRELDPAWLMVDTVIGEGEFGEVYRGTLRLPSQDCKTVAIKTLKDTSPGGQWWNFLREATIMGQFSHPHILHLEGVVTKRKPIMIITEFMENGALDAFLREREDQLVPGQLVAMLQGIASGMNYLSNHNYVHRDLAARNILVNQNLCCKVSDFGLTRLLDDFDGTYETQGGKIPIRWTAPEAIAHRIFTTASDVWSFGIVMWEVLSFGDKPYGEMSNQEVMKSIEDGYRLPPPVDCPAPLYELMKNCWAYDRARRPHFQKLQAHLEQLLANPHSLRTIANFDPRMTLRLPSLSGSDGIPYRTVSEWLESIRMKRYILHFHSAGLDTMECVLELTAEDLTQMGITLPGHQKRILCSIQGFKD

EGFR, construct: aa668-end, human (from UniProt P00533)
relative phosphorylation
Settings | at +1 | at +2 | at +3 | at +4 | at +5 | at -1 | at -2 | at -3 | at -4 | at -5
A fixed | 0.795 | 0.684 | 0.702 | 0.943 | 1.08 | 0.639 | 1.08 | 0.898 | 1.14 | 0.991
D fixed | 0.496 | 1.29 | 1.17 | 1.09 | 1.12 | 2.93 | 1.74 | 2.12 | 1.58 | 1.34
E fixed | 0.948 | 1.95 | 1.08 | 1.42 | 1.06 | 2.35 | 1.92 | 2.39 | 1.59 | 1.2
F fixed | 2.04 | 1.23 | 1.06 | 0.967 | 1.06 | 0.716 | 0.637 | 0.848 | 1.01 | 0.989
G fixed | 0.246 | 0.422 | 0.884 | 1.19 | 1.11 | 0.487 | 1.09 | 1.03 | 1.1 | 1.24
H fixed | 1.4 | 0.836 | 0.882 | 1.08 | 0.904 | 0.988 | 0.813 | 0.949 | 0.77 | 0.989
I fixed | 1.85 | 1.12 | 1.72 | 0.823 | 0.785 | 1.77 | 0.862 | 0.601 | 0.801 | 0.955
K fixed | 0.26 | 0.498 | 0.34 | 0.895 | 0.935 | 0.315 | 0.605 | 0.561 | 0.789 | 0.794
L fixed | 0.988 | 0.964 | 1.51 | 0.756 | 0.918 | 1.07 | 0.831 | 0.748 | 0.992 | 1
M fixed | 0.826 | 1.03 | 1.02 | 1.11 | 0.902 | 0.757 | 0.821 | 0.776 | 0.855 | 0.96
N fixed | 0.383 | 1.01 | 0.61 | 0.783 | 0.881 | 1.09 | 1.06 | 1.2 | 0.917 | 1.1
P fixed | 0.313 | 0.623 | 0.824 | 1.1 | 1.66 | 0.721 | 1.11 | 0.934 | 1.1 | 1.07
Q fixed | 0.804 | 0.905 | 0.941 | 0.969 | 0.827 | 0.768 | 1.13 | 0.881 | 1.08 | 0.954
R fixed | 0.299 | 0.685 | 0.665 | 0.978 | 0.825 | 0.317 | 0.575 | 0.586 | 0.763 | 0.87
S fixed | 0.762 | 0.843 | 0.79 | 0.931 | 1.14 | 0.546 | 1.13 | 0.995 | 0.827 | 0.88
T fixed | 1.09 | 0.907 | 0.956 | 0.964 | 0.913 | 0.784 | 0.923 | 0.935 | 0.672 | 0.802
V fixed | 2.64 | 1.05 | 1.47 | 0.88 | 0.899 | 1.16 | 0.979 | 0.7 | 0.825 | 0.851
W fixed | 1.85 | 1.96 | 1.37 | 1.12 | 0.981 | 0.598 | 0.708 | 0.843 | 1.19 | 1
pThr fixed | 1.41 | 1.5 | 0.796 | 1.02 | 1.08 | 2.05 | 1.57 | 1.61 | 1.41 | 1.2
pTyr fixed | 11.9 | 5.31 | 0.921 | 1.45 | 1.01 | 5.3 | 2.06 | 2.19 | 2.18 | 1.69

EPHA1, construct: aa568-end, human (from UniProt P21709)
relative phosphorylation
Settings | at +1 | at +2 | at +3 | at +4 | at +5 | at -1 | at -2 | at -3 | at -4 | at -5
A fixed | 1.63 | 0.704 | 0.7 | 0.747 | 1.08 | 0.615 | 1.22 | 0.904 | 1.25 | 1.1
D fixed | 0.645 | 0.963 | 0.21 | 0.562 | 0.699 | 0.705 | 0.891 | 1.06 | 0.864 | 0.752
E fixed | 1.87 | 1.03 | 0.191 | 0.665 | 0.616 | 0.52 | 1.04 | 1.18 | 1.11 | 0.59
F fixed | 0.853 | 1.68 | 1.4 | 1.27 | 1.17 | 1.37 | 0.531 | 1.16 | 0.936 | 1.1
G fixed | 0.729 | 0.307 | 0.486 | 1.21 | 1.21 | 0.23 | 1.38 | 1.07 | 1.47 | 1.26
H fixed | 0.604 | 0.912 | 0.877 | 1.38 | 0.987 | 0.87 | 1.03 | 1.18 | 0.919 | 0.917
I fixed | 1.41 | 0.997 | 2.57 | 0.732 | 0.92 | 2.74 | 0.716 | 0.784 | 0.853 | 0.941
K fixed | 0.292 | 0.642 | 0.319 | 0.931 | 1.12 | 0.381 | 1 | 0.801 | 0.993 | 1.12
L fixed | 1.15 | 1.18 | 2.29 | 0.816 | 0.955 | 2.38 | 0.789 | 0.803 | 1 | 1.07
M fixed | 1.88 | 1.21 | 1.5 | 1.26 | 0.966 | 1.11 | 0.633 | 0.926 | 0.948 | 0.968
N fixed | 0.276 | 1.17 | 0.385 | 0.726 | 0.773 | 1 | 1.11 | 1.16 | 0.852 | 0.937
P fixed | 0.157 | 0.521 | 1.26 | 1.19 | 1.57 | 0.445 | 1.29 | 0.929 | 1.13 | 1.17
Q fixed | 1.11 | 0.792 | 0.679 | 0.86 | 0.807 | 0.433 | 1.05 | 0.77 | 0.95 | 0.914
R fixed | 0.477 | 1.06 | 0.696 | 1.47 | 1.13 | 0.587 | 1.36 | 1.07 | 1.23 | 1.26
S fixed | 0.799 | 0.697 | 0.488 | 0.739 | 1 | 0.391 | 1.46 | 1.03 | 0.868 | 0.86
T fixed | 0.823 | 0.867 | 0.576 | 0.813 | 0.9 | 1.19 | 0.845 | 0.917 | 0.666 | 0.725
V fixed | 1.93 | 0.974 | 2.03 | 0.73 | 0.853 | 1.43 | 0.821 | 0.78 | 0.827 | 0.913
W fixed | 1.36 | 2.3 | 1.36 | 1.89 | 1.24 | 1.61 | 0.821 | 1.48 | 1.14 | 1.4
pThr fixed | 0.981 | 1.05 | 0.17 | 0.4 | 0.508 | 1.39 | 0.685 | 0.721 | 0.608 | 0.558
pTyr fixed | 1.87 | 2.54 | 0.57 | 0.629 | 0.727 | 0.904 | 0.81 | 0.888 | 0.88 | 0.684
